The record followed here is article PMC4426065 (Structure (London, England : 1993), 2015).

Sequences and labels used below:
B3: Atg17 (K. lactis) (natural protein, Kluyveromyces lactis, UniProt Q6CS99 1-423, looked up)
chain: MSDAATTIPSDEIDKLWNKARNQLVEAQVECEESLKILSKVRTEMDSSQKSRFKLKFILNCLVNQVEFFKNIMLEKCISTELIDNEWSKLVLVEIVNDVSYWQNEITTKMKILQGTKYDLTDDHSSLSDFICMDHVDILQQKIDEIPIIKQQVTNIRQHYKSIKDRIENQLVAVKLKKLRTYFDSHFSRDSKNNLFKLLESDYVTELNEFENELADFLRSITDHFDKCTILKEQQIPLPDLKELFQIVKKDDTQLENIRELVFETGLEVKAFSKKVNETISEIMDKIGGFHLLASKIVTELEKCEEYLSIFQKIANLVFVYKESCIKKIEQVQQLCEFYDKFKLGYKNLLRERDRRKATALQMEKILKECQEKLQALSDADLDQRQQFLLENGDYLPENIWPGYIDDMESMYSFEYSIHNVPN

What all share (test): SAXS
Data set [1] deals with Atg17-Atg31-Atg29_(1-85) subcomplex from Kluyveromyces lactis (dimeric double crescent) (Kluyveromyces lactis) (UniProt Q6CS99).
The target in data set [2] is Atg1 minipentamer: Atg1EAT-Atg13_(350-525)-Atg17-Atg31-Atg29_(1-85) (K. lactis) (Kluyveromyces lactis) (UniProt Q6CSX2).
Data set [3] deals with the molecule itself.
The data set “Atg17 (K. lactis)” deals with B3.
Data set [4] concerns the molecule itself. This is another data set of the same source.

The term stoichiometry N denotes the number of molecules, sites or subunits per partner or assembly. Consider “Atg17-Atg31-Atg29_(1-85) subcomplex from Kluyveromyces lactis (dimeric double crescent) (from UniProt Q6CS99 1-423; Q6CTU8 1-85)”, for which, in data set [1], the stoichiometry N came to 4.

Turning to “Atg1 minipentamer: Atg1EAT-Atg13_(350-525)-Atg17-Atg31-Atg29_(1-85) (K. lactis) (from UniProt Q6CSX2 562-831; Q6CWK2 350-525; Q6CS99 1-423; Q6CTU8 1-85) (complex)”, the stoichiometry N in data set [2] amounted to 4.

B1: Atg1 EAT domain (K. lactis Atg1 residues 562-831) (domain or fragment, Kluyveromyces lactis, UniProt Q6CSX2 562-831, looked up)
chain: DSNITPAVESLAAKAFVMYSFAEMKFSQILPTPPSSTDYDPLSDKRLSNGSCAIEDEEDLDQGRPPSNQTLTSATTKISSATNVDTQIPAPELKKLCTESLLLYLKALTILAASMKLTSKWWYENESKNCTLKLNILVQWIRDRFNECLDKAEFLRLKLHAINTSPNSQWSDDDPVIFVEKLIYDRALDISRNAARMEMESGNYNTCELAYATSLWMLEILLDENFQFNEVYDDEYASNITSLDESDKEMIKKYISSIANRLKALKSKMV
With B1, the “stoichiometry N” value in “SAXS [3]” is 2.

B2: Atg13 residues 350-525 (K. lactis) (domain or fragment, Kluyveromyces lactis, UniProt Q6CWK2 350-525, looked up)
chain: AALKVQRGSAGSTIVNGDVPPELSSVGSGSKYSSSFGRIRRHSSIRRSESFDRTAKPRKSTENPPEDLLEFVKLLEDKKELNMKPNTILPQQDISNSLMRFQSMKSNNDALSDNLSMSMSIDQPNVRFGSNSHSPIPSFSPNYGSIPSRLSQGSRNNSNAELITSRKSSLDRHKHN
Turning to B2, the binding result in the data set with Atg17 (K. lactis) is recorded as “binds”.

Consider B3, for which the binding result in “SAXS [4]” was “binds”.
